Measured values reported in patent US5149780A, “Peptides and antibodies that inhibit integrin-ligand binding” (The Scripps Research Institute, priority 1988, dated 1992).

Columns and labels:
beta subunit (GPIIIa) = biological target: T1, beta subunit (GPIIIa) (Homo sapiens, UniProt P05106+P08514); assay: Chemical crosslinking of 125I-Fn-7 to platelets with BS3, SDS-PAGE and autoradiography; format: binding; conditions: thrombin-stimulated platelets, 20 μM peptide, 45 min at 22° C., BS3 0.2 mM
T1 construct: endogenous in cells; host or cells: human platelets (thrombin-stimulated or nonstimulated), gel-filtered from fresh blood
Experimental: FIG. 2 illustrates the results of the crosslinking of an RGD peptide to discrete sites in the beta subunit (GPIIIa) of an Integrin adhesion receptor. The ^125 I-labeled RGD peptide, Fn-7 (20 μM), was bound to platelet (6×10^8 /ml) for 45 min at 22° C., and crosslinked with BS^3 (0.2 mM). The fragmentation patterns after proteolysis were analyzed by SDS-PAGE [Laemmli, Nature. 227:680 (1970)] and autoradiography. […] Lanes 2-7, GPIIIa:Fn-7 bands were excised from gels, subjected to proteolysis and then analyzed by SDS-PAGE (15% gels, reducing conditions). For lanes 2-5, GPIIIA:Fn-7 bands were excised and digestions with V-8 protease were performed within the gel slices as described in Cleveland et al., J. Biol. Chem. 252:1102 (1977).
Platelets were isolated from fresh human blood collected into acid/citrate/dextrose by differential centrifugation followed by gel filtration on Sepharose 2B in divalent ion-free Tyrode's buffer, pH 7.3, containing 0.1% bovine serum albumin. See, Marguerie et al., J. Biol. Chem. 225:154-161 (1980). […]
The cell-bound ligand was recovered by centrifugation through 20% sucrose, and the cells were extracted in PBS containing 1% Nonidet P40 and 10 mM N-ethylmaleimide (Sigma). […] The cross-linked samples were analyzed by electrophoresis (SDS-PAGE) on polyacrylamide vertical slab gels in the buffer system of Laemmli, Nature, […] (1970). […]

alpha subunit (GPIIb) = biological target: T2, alpha subunit (GPIIb) (Homo sapiens, UniProt P05106+P08514); assay: as above; format: binding; conditions: thrombin-stimulated platelets, 20 μM peptide, 45 min at 22° C., BS3 0.2 mM
T2 construct: The radiolabeled peptide was then added to 6×10^8 cells/ml stimulated or nonstimulated platelets; endogenous in cells; host or cells: human platelets (thrombin-stimulated), gel-filtered from fresh blood

KYGRRGDS [Fn-7, RGD-peptide with a lysine to facilitate crosslinking and a tyrosine for radioiodination]
crosslinking of 125I-Fn-7 to the beta subunit (GPIIIa) (beta subunit (GPIIIa)): predominance
crosslinking of 125I-Fn-7 to the alpha subunit (GPIIb) (alpha subunit (GPIIb)): more minor crosslinking
